From article PMC5428714, “The structures of a naturally empty cowpea mosaic virus particle and its genome-containing counterpart by cryo-electron microscopy” (Scientific Reports, 2017)

What was measured:
[1] = target: T1, Cowpea mosaic virus (CPMV) Large (L) coat protein (Cowpea mosaic virus, UniProt P03599 460-833); assay: cryo-EM structure; purified CPMV-T particles (naturally empty capsid assembled in planta), ~1.92 mg/ml, vitrified at 4 °C; icosahedral (I3) symmetry imposed; 4.25 Å; conditions: both partners purified
T1 construct: Large (L) coat protein of Cowpea mosaic virus, cut from the RNA-2-encoded precursor polyprotein (VP60) by the 24 K viral proteinase; numbers count on: the mature L subunit; 60 copies each of L and S form the icosahedral capsid; also called L subunit; large coat protein subunit; source: for the cleaved eVLP map: recombinant eVLP from transient expression of VP60 and the 24 K protease
T1 sequence: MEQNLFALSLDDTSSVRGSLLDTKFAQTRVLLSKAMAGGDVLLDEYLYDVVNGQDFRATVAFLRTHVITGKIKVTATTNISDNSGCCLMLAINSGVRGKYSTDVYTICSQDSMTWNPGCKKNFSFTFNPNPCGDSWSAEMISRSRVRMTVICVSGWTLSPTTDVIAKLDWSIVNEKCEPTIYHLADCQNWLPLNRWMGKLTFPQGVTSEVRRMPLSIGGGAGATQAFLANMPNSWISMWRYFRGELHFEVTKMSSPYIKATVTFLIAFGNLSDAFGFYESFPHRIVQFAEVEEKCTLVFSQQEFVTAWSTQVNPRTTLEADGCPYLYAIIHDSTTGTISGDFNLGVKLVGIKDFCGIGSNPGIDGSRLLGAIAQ

[2] = target: the molecule itself; assay: as above

B1: Cowpea mosaic virus (CPMV) Small (S) coat protein with the C terminal extension (as in CPMV-T) (natural protein)
chain: GPVCAEASDVYSPCMIASTPPAPFSDVTAVTFDLINGKITPVGDDNWNTHIYNPPIMNVLRTAAWKSGTIHVQLNVRGAGVKRADWDGQVFVYLRQSMNPESYDARTFVISQPGSAMLNFSFDIIGPNSGFEFAESPWANQTTWYLECVATNPRQIQQFEVNMRFDPNFRVAGNILMPPFPLSTETPPLLKFRFRDIERSKRSVMVGHTATAA
notes: Small (S) coat protein of Cowpea mosaic virus, cut from the RNA-2-encoded precursor polyprotein (VP60), with the 24 amino acid C terminal extension kept; density to Thr184 and from Pro188 to Ile197; numbers count on: the mature S subunit; Naturally empty particles are cleaved more slowly and keep the C-terminus for longer; residues after Ile197 are not seen in the map; also called S subunit; …
Which results are given for B1?
binding result [1]: binds; binding result [2]: binds
